System: peptide library, one residue held at a place counted from the S/T acceptor
Assay: relative phosphorylation of the sub-library (ratio to the mean residue at this position); higher = residue favoured
Settings: human
Method in brief: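 Purified recombinant kinases (human or orthologue constructs) were incubated in 384-well plates with biotinylated degenerate peptide sub-libraries, each fixing one residue at one position around a central Ser/Thr. Peptides were at 50 μM, with 50 μM ATP spiked with γ-32P-ATP, for 90 min under kinase-specific conditions. Spots on streptavidin membranes were phosphorimaged and quantified by densitometry. Relative sub-library phosphorylation is a ratio to the mean residue at that position.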

Chain of PASK, construct: aa949-1323 (Q96RG2 949-1323, looked up): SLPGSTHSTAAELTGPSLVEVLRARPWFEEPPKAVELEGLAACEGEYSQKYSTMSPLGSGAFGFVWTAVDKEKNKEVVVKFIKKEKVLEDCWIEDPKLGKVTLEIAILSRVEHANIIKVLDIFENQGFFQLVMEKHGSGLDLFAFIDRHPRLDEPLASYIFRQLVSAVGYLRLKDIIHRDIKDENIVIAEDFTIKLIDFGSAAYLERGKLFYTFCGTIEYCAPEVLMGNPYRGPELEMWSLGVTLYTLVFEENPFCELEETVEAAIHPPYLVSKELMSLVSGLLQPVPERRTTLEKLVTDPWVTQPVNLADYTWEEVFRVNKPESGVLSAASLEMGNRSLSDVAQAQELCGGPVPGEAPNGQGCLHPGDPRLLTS
Chain of PAK6, construct: aa382-end (Q9NQU5 382-681, looked up): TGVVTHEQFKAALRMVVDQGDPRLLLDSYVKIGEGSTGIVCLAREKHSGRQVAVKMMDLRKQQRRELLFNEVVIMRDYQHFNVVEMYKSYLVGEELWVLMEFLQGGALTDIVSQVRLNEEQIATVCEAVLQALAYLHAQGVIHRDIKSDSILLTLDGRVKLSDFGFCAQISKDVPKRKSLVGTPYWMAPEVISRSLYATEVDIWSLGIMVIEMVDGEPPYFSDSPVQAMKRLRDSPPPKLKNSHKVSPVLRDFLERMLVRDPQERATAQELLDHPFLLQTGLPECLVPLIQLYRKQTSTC

PAK6, construct: aa382-end (from UniProt Q9NQU5)
relative phosphorylation
Settings | at +1 | at +2 | at +3 | at +4 | at -1 | at -2 | at -3 | at -4 | at -5
A fixed | 0.845 | 5.4 | 1.16 | 1.06 | 0.921 | 0.523 | 0.766 | 1.19 | 1.21
D fixed | 0.225 | 0.407 | 0.707 | 0.827 | 0.361 | 0.117 | 0.216 | 0.554 | 0.759
E fixed | 0.233 | 0.264 | 1.08 | 0.69 | 0.256 | 0.109 | 0.18 | 0.635 | 0.568
F fixed | 1.37 | 0.835 | 0.986 | 0.672 | 1.12 | 0.626 | 0.638 | 0.778 | 0.855
G fixed | 0.376 | 0.695 | 1.18 | 1.29 | 0.619 | 0.31 | 0.553 | 1.24 | 1.19
H fixed | 0.97 | 0.78 | 1.26 | 1.02 | 1.19 | 1.1 | 0.753 | 0.941 | 0.884
I fixed | 1.56 | 0.752 | 0.887 | 0.623 | 1.14 | 0.767 | 1.11 | 1.33 | 1.41
K fixed | 0.887 | 0.594 | 0.818 | 1.31 | 1.76 | 0.97 | 4.26 | 1.63 | 1.59
L fixed | 1.63 | 0.798 | 1.11 | 0.609 | 1.29 | 0.662 | 0.802 | 0.903 | 1.15
M fixed | 1.44 | 0.706 | 1.05 | 0.786 | 1.09 | 0.461 | 0.655 | 0.943 | 0.875
N fixed | 0.49 | 0.704 | 0.72 | 1.03 | 0.917 | 0.276 | 0.479 | 0.792 | 0.873
P fixed | 0.313 | 0.643 | 1.3 | 1.96 | 0.304 | 0.501 | 0.561 | 0.968 | 0.892
Q fixed | 0.693 | 0.526 | 0.909 | 1.15 | 0.78 | 0.456 | 0.674 | 0.81 | 0.784
R fixed | 1.07 | 0.67 | 0.974 | 1.57 | 2.53 | 8.47 | 3.53 | 1.58 | 1.53
V fixed | 1.61 | 1 | 0.897 | 0.753 | 0.627 | 0.5 | 0.742 | 1.19 | 1.02
W fixed | 1.86 | 0.891 | 0.905 | 0.853 | 0.9 | 0.409 | 0.56 | 0.762 | 0.691
Y fixed | 1.42 | 1.33 | 1.07 | 0.807 | 1.2 | 0.737 | 0.525 | 0.755 | 0.731
pThr fixed | 0.461 | 0.494 | 0.647 | 0.905 | 0.272 | 0.192 | 0.315 | 0.558 | 0.665
pTyr fixed | 0.684 | 0.465 | 0.993 | 0.687 | 0.358 | 0.219 | 0.379 | 0.61 | 0.496

PASK, construct: aa949-1323 (from UniProt Q96RG2)
relative phosphorylation
Settings | at +1 | at +2 | at +3 | at +4 | at -1 | at -2 | at -3 | at -4 | at -5
A fixed | 0.999 | 0.848 | 0.766 | 0.739 | 0.615 | 1.36 | 0.758 | 0.939 | 0.757
D fixed | 1.04 | 2.11 | 1.66 | 1.65 | 1.2 | 0.778 | 0.63 | 1 | 0.896
E fixed | 1.4 | 1.34 | 1.35 | 1.43 | 0.919 | 0.762 | 0.711 | 1.55 | 0.776
F fixed | 1.07 | 0.829 | 1.14 | 0.825 | 0.491 | 0.814 | 0.565 | 0.779 | 0.72
G fixed | 1.11 | 0.967 | 0.808 | 1.03 | 0.746 | 1.19 | 0.864 | 0.804 | 0.811
H fixed | 1.21 | 1.25 | 1.14 | 1.12 | 0.903 | 1.33 | 0.927 | 1.04 | 2.98
I fixed | 0.665 | 0.664 | 0.583 | 0.748 | 0.384 | 0.493 | 0.425 | 0.663 | 0.742
K fixed | 0.944 | 0.698 | 0.956 | 0.853 | 2.22 | 1.42 | 1.34 | 1.39 | 1.33
L fixed | 0.665 | 0.65 | 0.784 | 0.732 | 0.609 | 0.746 | 0.484 | 0.723 | 1.03
M fixed | 0.914 | 0.758 | 0.823 | 0.764 | 0.665 | 0.774 | 0.55 | 0.829 | 0.909
N fixed | 1.09 | 1.49 | 1.03 | 1.08 | 1.59 | 1.16 | 0.623 | 0.995 | 0.884
P fixed | 0.623 | 0.796 | 1.2 | 1.41 | 2.89 | 1.54 | 1.83 | 1.3 | 0.66
Q fixed | 0.932 | 1.14 | 0.996 | 1.07 | 1.07 | 1.08 | 0.764 | 1.05 | 0.788
R fixed | 0.787 | 0.825 | 0.888 | 0.65 | 0.954 | 1.38 | 4.8 | 1.42 | 1.39
V fixed | 0.854 | 0.71 | 0.591 | 0.668 | 0.447 | 0.638 | 0.433 | 0.68 | 0.625
W fixed | 1.26 | 0.953 | 1.25 | 1.05 | 0.53 | 0.704 | 0.664 | 0.944 | 0.927
Y fixed | 1.45 | 0.966 | 1.04 | 1.18 | 0.774 | 0.835 | 0.635 | 0.9 | 0.775
pThr fixed | 3.06 | 2.97 | 2.92 | 2.7 | 1.02 | 1.43 | 1.04 | 1.25 | 1.11
pTyr fixed | 2.5 | 2.53 | 3.07 | 2.25 | 1.58 | 1.41 | 1.28 | 1.98 | 1.59

Source: the supplement of paper PMC9876800
